Reference: US20260243780A1

How the values were obtained:
[1] = biological target: SLC3A2, as used in the SPR measurement; assay: SPR, concentration gradient binding curves
[2] = biological target: transferrin receptor protein 1 (TFRC), as used in the SPR measurement; assay: SPR, concentration gradient binding curves

In the case of “Cf48 small peptide (C4orf48), as used in the SPR measurement”, the Kd [1] is reported as 35.2 nM and the Kd [2] is reported as 571 nM.
